Test results: patent US20110126301A1 (WALTER AND ELIZA HALL INSTITUTE OF MEDICAL RESEARCH, published 2011)

B1: soluble FLAG-tagged mouse 5B6 including stalk (receptor)
chain: ASISARQNSGLHHILDAQKMVWNHRGARQDYKDDDDKTREQQERLIQQDTALVNLTQWQRKYTLEYCQALLQRSLHSGTDASTGPVLLTSPQMVPQTLDSKETGSDCSPCPHNWIQNGKSCYYVFERWEMWNISKKSCLKEGASLFQIDSKEEMEFISSIGKLKGGNKYWVGVFQDGISGSWFWEDGSSPLSDLLPAERQRSAGQICGYLKDSTLISDKCDSWKYFICEKKAFGSCI
notes: also called soluble m5B6; soluble mouse 5B6
B2: rat mAb 24/04-10B4 (anti-5B6 / anti-Clec9A antibody) (antibody, V domains shown)
VH: AVQIVESGGGLVQPKESLKISCTASGFTFSNAAIYWVRQTPGKGLEWVGRIRTRPSKYATDYADSVRGRFTISRDDSKSMVYLQMDNLRTEDTAMYYCTPRATEDVPFYWGQGVMVTVSS
VL: DIVMTQTPSSQAVSAGEKVTMNCKSSQSVLYDENKKNYLAWYQQKSGQSPKLLIYWASTGESGVPDRFIGSGSGTDFTLTISSVQAEDLAVYYCQQYYDFPPTFGGGTKLELKR
notes: Rat IgG2a, kappa, from hybridoma 24/04-10B4 (peptide immunisation); Used biotinylated or APC-conjugated in flow cytometry; also called anti-m5B6 mAb; anti-5B6 mAb
B3: soluble FLAG-tagged human 5B6 including stalk (receptor)
chain: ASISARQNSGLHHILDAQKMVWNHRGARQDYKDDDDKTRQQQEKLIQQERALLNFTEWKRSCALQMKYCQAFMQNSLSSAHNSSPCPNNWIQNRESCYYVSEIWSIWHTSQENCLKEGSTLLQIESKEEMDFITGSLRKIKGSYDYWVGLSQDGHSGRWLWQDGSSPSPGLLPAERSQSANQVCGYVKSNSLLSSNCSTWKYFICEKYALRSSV
notes: also called soluble h5B6; soluble human 5B6

Tests used:
[1] = molecular target: T1, human 5B6 (CLEC9A), membrane bound (human, UniProt Q6UXN8 1-241); experiment: flow cytometry on transiently transfected 293T cells; anti-FLAG 9H10-biotin and streptavidin-PE
T1 construct: Full length on transfectant cells or native on human blood BDCA-3+ DC; also called h5B6; HEEE9341
Description: To identify binding partners for the 5B6 molecule, the inventors generated soluble FLAG-tagged m5B6 and h5B6 which encompassed the ectodomain of 5B6 including the stalk region and the C-type lectin-like domain (CTLD), denoted in FIG. 11A as “Original (with stalk)”. A soluble FLAG-tagged ectodomain version of the C-type lectin Cire was also generated as a control molecule. […] Thus, soluble 5B6 can interact with membrane bound 5B6 in a cross-species manner.

[2] = molecular target: T1, human 5B6 (CLEC9A), membrane bound; experiment: flow cytometry on cells expressing 5B6

T1 sequence (Q6UXN8 whole entry): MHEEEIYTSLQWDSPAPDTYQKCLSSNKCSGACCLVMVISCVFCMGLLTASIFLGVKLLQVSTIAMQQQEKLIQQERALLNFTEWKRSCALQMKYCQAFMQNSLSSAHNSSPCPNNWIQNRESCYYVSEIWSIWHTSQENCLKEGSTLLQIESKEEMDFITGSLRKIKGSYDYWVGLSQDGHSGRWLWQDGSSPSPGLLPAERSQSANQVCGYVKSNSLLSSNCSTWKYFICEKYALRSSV

Binder	binding result [1]	binding result [2]
B1	binds	
B2		binds
B3	binds	
